Experimental data published in patent US20030224036A1, “Hla class I a2 tumor associated antigen peptides and vaccine compositions” (priority 1999, published 2003).
Blank lines part the entries; values can stand above or below the binder they belong to.

What was measured:
Settings in all cases: remark: other sources report otherwise
HLA-A*0206 (human) [1] = experiment: competitive binding assay, purified HLA
HLA-A*0206 (human) [2] = experiment: competitive inhibition assay, purified HLA
HLA-A*0201 (human) [3] = experiment: competitive inhibition assay, purified HLA
HLA-A*0201 (human) [4] = experiment: competitive binding assay, purified HLA
HLA-A*6802 (human) [5] = experiment: competitive binding assay, purified HLA
HLA-A*6802 (human) [6] = experiment: competitive inhibition assay, purified HLA

IC50 (HLA-A*0206 (human) [1]): 80 nM
IC50 (HLA-A*0206 (human) [2]): 80 nM
B1: CEA.605V9 (peptide)
peptide: YLSGANLNV

IC50 (HLA-A*0201 (human) [3]): 200 nM
B2: Her2/neu.773 (peptide)
peptide: VMAGVGSPYV

IC50 (HLA-A*0201 (human) [4]): 50 nM
IC50 (HLA-A*0201 (human) [3]): 50 nM
B3: MAGE2.157 (peptide)
peptide: YLQLVFGIEV

IC50 (HLA-A*6802 (human) [5]): 2000 nM
IC50 (HLA-A*6802 (human) [6]): 2000 nM
B4: Her2/neu.665 (peptide)
peptide: VVLGVVFGI
